{"source": "patent US20260069707A1", "about": "“COMBINATION THERAPY WITH ANTIBODY-DRUG CONJUGATES AND HYALURONIDASES” (HALOZYME, INC., priority 2024, published 2026)", "experiment": "Calculation of drug to antibody ratio (DAR)", "conditions": "for ADC:free Ab / free Ab:ADC: after adjustment factor", "source_text": "The Drug-to-Antibody Ratio (DAR) is a critical parameter in antibody drug conjugate development, representing the average number of drug molecules attached to each antibody molecule.", "data": [{"substance": "Sacituzumab govitecan [Trodelvy]", "values": [{"measurement": "% DAR remaining (which may be ~ADC/ total Ab)", "setting": "Day 1", "result": 76.2, "unit": "%"}, {"measurement": "% DAR remaining after adjustment factor to allow for variability (line without head)", "setting": "Day 1", "result": 68.6, "unit": "%"}, {"measurement": "ADC:free Ab", "setting": "Day 1", "result": 218.2, "unit": "%"}, {"measurement": "free Ab:ADC", "setting": "Day 1", "result": 45.8, "unit": "%"}, {"measurement": "% DAR remaining (which may be ~ADC/ total Ab)", "setting": "Day 7", "result": 42.9, "unit": "%"}, {"measurement": "% DAR remaining after adjustment factor to allow for variability (line without head)", "setting": "Day 7", "result": 34.3, "unit": "%"}, {"measurement": "ADC:free Ab", "setting": "Day 7", "result": 52.2, "unit": "%"}, {"measurement": "free Ab:ADC", "setting": "Day 7", "result": 191.7, "unit": "%"}, {"measurement": "% DAR remaining (which may be ~ADC/ total Ab)", "setting": "Day 14", "result": 31.0, "unit": "%"}, {"measurement": "% DAR remaining after adjustment factor to allow for variability (line without head)", "setting": "Day 14", "result": 24.8, "unit": "%"}, {"measurement": "ADC:free Ab", "setting": "Day 14", "result": 32.9, "unit": "%"}, {"measurement": "free Ab:ADC", "setting": "Day 14", "result": 303.8, "unit": "%"}, {"measurement": "% DAR remaining (which may be ~ADC/ total Ab)", "setting": "Day 21", "result": 23.8, "unit": "%"}, {"measurement": "% DAR remaining after adjustment factor to allow for variability (line without head)", "setting": "Day 21", "result": 19.0, "unit": "%"}, {"measurement": "ADC:free Ab", "setting": "Day 21", "result": 23.5, "unit": "%"}, {"measurement": "free Ab:ADC", "setting": "Day 21", "result": 425.0, "unit": "%"}]}]}
